# Source: patent US20170342144A1 (Sanofi, published 2017)
# T1: human TGFβ2 (human, UniProt P61812 303-414)
# T1 construct: also called TGFβ2 homodimer
# T1 sequence: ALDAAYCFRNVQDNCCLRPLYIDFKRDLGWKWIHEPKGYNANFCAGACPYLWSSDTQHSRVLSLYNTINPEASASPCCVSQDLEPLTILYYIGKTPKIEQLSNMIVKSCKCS
# T2: human TGFβ3 (human, UniProt P10600 301-412)
# T2 sequence: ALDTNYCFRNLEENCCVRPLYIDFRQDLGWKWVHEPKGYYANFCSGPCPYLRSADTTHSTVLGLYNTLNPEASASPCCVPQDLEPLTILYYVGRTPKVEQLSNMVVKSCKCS
# Assays:
# human TGFβ1 [1] = target: T3, human TGFβ1 (human, UniProt P01137 279-390); assay: Biacore off-rate vs wt GC1008
# T3 construct: also called TGFβ1 homodimer
# From the text: (§1) Plasmids encoding either the GC1008 heavy chain or light chain were used as a template in PCR-based mutagenesis reactions. Mutations to the encoding DNA were made to create 155 single amino acid substitutions of the encoded heavy chain amino acid sequence and one single amino acid substitution of the encoded light chain amino acid sequence. A QuikChange® Lightning Site-Directed Mutagenesis kit (Agilent Technologies, Santa Clara Calif.) was used according to the manufacturer's instructions to create DNA mutations using a set of forward and reverse primers, either designed for a specific amino acid or for all 20 amino acids with a degenerate codon (NNK). After sequencing confirmation, identified mutant DNA was paired with a wild-type light or heavy chain DNA for transfection into an Expi293F™ host cell suspension (Life Techonologies Corp., Grand Island, N.Y.). At 4 days post-transfection, conditioned media (1 mL) was harvested and purified using a 1 mL Protein A PhyTip® column (PhyNexus, Inc., San Jose, Calif.) and a PureSpeed™ 12-channel pipette (Rainin Instrument LLC, Oakland, Calif.). Purified variant antibody samples were analyzed in duplicate on a Biacore® 3000 (GE Healthcare) at 50 nM concentrations, using the 100 RU level TGFβ1, 2, and 3 immobilized surfaces. The off-rate (kd) of the variants was divided by the kd of the wild-type control to obtain the fold change in the kd. […] A heat map was generated to visualize the results. Variants that completely lost affinity for TGFβ were shown in red without numbers.
# human TGFβ2 [2] = target: T1, human TGFβ2; assay: Biacore off-rate vs wt GC1008
# From the text: as §1
# human TGFβ3 [3] = target: T2, human TGFβ3; assay: Biacore off-rate vs wt GC1008
# From the text: as §1
# human TGFβ1 [4] = target: T3, human TGFβ1; assay: Biacore off-rate vs wt GC1008, 50 nM
# Method in brief: (§2)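 Surface plasmon resonance on a Biacore 3000 measured how fast purified antibody variants dissociated from TGFβ isoforms immobilized at about 100 RU. Variants carried single heavy- or light-chain substitutions and were produced by transient Expi293F transfection with Protein A cleanup. Samples at 50 nM were tested in duplicate, and each variant kd was divided by the wild-type control kd to give fold change.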
# human TGFβ2 [5] = target: T1, human TGFβ2; assay: Biacore off-rate vs wt GC1008, 50 nM
# Method in brief: as §2
# human TGFβ3 [6] = target: T2, human TGFβ3; assay: Biacore off-rate vs wt GC1008, 50 nM
# Method in brief: as §2
# human TGFβ1 [7] = target: T3, human TGFβ1; assay: Biacore, 3.33-90 nM, 1:1 global fit, vs wt GC1008
# Procedure: (§3) In FIG. 6C, seventeen mutants were selected and scaled up to produce sufficient amount of purified protein for KD (equilibrium constant=kd/ka) analysis by Biacore. Multiple concentrations (90, 30, 10 and 3.33 nM) were used in duplicate on the 150 RU level TGFβ1, 2, and 3 immobilized surfaces. KD was calculated using global curve fitting analysis for a 1-to-1 Langmuir binding model. The experimental data from all four concentrations were used for calculation except for I54N and I54R mutants, where only the top 2 concentrations were used. The fold changes in KD were compared to the fold changes in kd (off rate) presented in FIG. 6B, and a heat map was generated for visualization. Similar fold changes were observed from the two data sets, confirming the validity of using kd as a parameter for screening of 155 single mutants as shown in FIG. 6B.
# human TGFβ2 [8] = target: T1, human TGFβ2; assay: Biacore, 3.33-90 nM, 1:1 global fit, vs wt GC1008
# Procedure: as §3
# human TGFβ3 [9] = target: T2, human TGFβ3; assay: Biacore, 3.33-90 nM, 1:1 global fit, vs wt GC1008
# Procedure: as §3
# T3 sequence (P01137 279-390 limits assumed): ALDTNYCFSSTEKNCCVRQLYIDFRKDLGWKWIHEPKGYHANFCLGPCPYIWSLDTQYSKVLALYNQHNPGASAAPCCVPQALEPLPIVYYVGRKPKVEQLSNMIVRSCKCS
kd mutant/kd wt (human TGFβ1 [1]),kd mutant/kd wt (human TGFβ2 [2]),kd mutant/kd wt (human TGFβ3 [3]),kd var/kd wt (human TGFβ1 [4]),kd var/kd wt (human TGFβ2 [5]),kd var/kd wt (human TGFβ3 [6]),KD mutant/KD wt (human TGFβ1 [7]),KD mutant/KD wt (human TGFβ2 [8]),KD mutant/KD wt (human TGFβ3 [9]),Binder
1,0.8,0.7,1,0.8,0.7,1,0.6,0.6,"D56R (antibody, V domains shown, GC1008 IgG4 variant) VH: QVQLVQSGAEVKKPGSSVKVSCKASGYTFSSNVISWVRQAPGQGLEWMGGVIPIVRIANYAQRFKGRVTITADESTSTTYMELSSLRSEDTAVYYCASTLGLVLDAMDYWGQGTLVTVSS VL: ETVLTQSPGTLSLSPGERATLSCRASQSLGSSYLAWYQQKPGQAPRLLIYGASSRAPGIPDRFSGSGSGTDFTLTISRLEPEDFAVYYCQQYADSPITFGQGTRLEIK"
–,–,–,2.3,1.5,1.7,–,–,–,"Y27R (antibody, V domains shown, GC1008 IgG4 variant) VH: QVQLVQSGAEVKKPGSSVKVSCKASGRTFSSNVISWVRQAPGQGLEWMGGVIPIVDIANYAQRFKGRVTITADESTSTTYMELSSLRSEDTAVYYCASTLGLVLDAMDYWGQGTLVTVSS VL: ETVLTQSPGTLSLSPGERATLSCRASQSLGSSYLAWYQQKPGQAPRLLIYGASSRAPGIPDRFSGSGSGTDFTLTISRLEPEDFAVYYCQQYADSPITFGQGTRLEIK"
0.8,0.6,0.1,0.8,0.6,0.1,0.9,0.7,0.3,"E74L (antibody, V domains shown, GC1008 IgG4 variant) VH: QVQLVQSGAEVKKPGSSVKVSCKASGYTFSSNVISWVRQAPGQGLEWMGGVIPIVDIANYAQRFKGRVTITADLSTSTTYMELSSLRSEDTAVYYCASTLGLVLDAMDYWGQGTLVTVSS VL: ETVLTQSPGTLSLSPGERATLSCRASQSLGSSYLAWYQQKPGQAPRLLIYGASSRAPGIPDRFSGSGSGTDFTLTISRLEPEDFAVYYCQQYADSPITFGQGTRLEIK"
–,–,–,1.6,1.5,1.6,–,–,–,"Y27S (antibody, V domains shown, GC1008 IgG4 variant) VH: QVQLVQSGAEVKKPGSSVKVSCKASGSTFSSNVISWVRQAPGQGLEWMGGVIPIVDIANYAQRFKGRVTITADESTSTTYMELSSLRSEDTAVYYCASTLGLVLDAMDYWGQGTLVTVSS VL: ETVLTQSPGTLSLSPGERATLSCRASQSLGSSYLAWYQQKPGQAPRLLIYGASSRAPGIPDRFSGSGSGTDFTLTISRLEPEDFAVYYCQQYADSPITFGQGTRLEIK"
–,–,–,1.3,1.4,1.3,–,–,–,"Y27M (antibody, V domains shown, GC1008 IgG4 variant) VH: QVQLVQSGAEVKKPGSSVKVSCKASGMTFSSNVISWVRQAPGQGLEWMGGVIPIVDIANYAQRFKGRVTITADESTSTTYMELSSLRSEDTAVYYCASTLGLVLDAMDYWGQGTLVTVSS VL: ETVLTQSPGTLSLSPGERATLSCRASQSLGSSYLAWYQQKPGQAPRLLIYGASSRAPGIPDRFSGSGSGTDFTLTISRLEPEDFAVYYCQQYADSPITFGQGTRLEIK"
–,–,–,1.3,1.3,1.3,–,–,–,"Y27N (antibody, V domains shown, GC1008 IgG4 variant) VH: QVQLVQSGAEVKKPGSSVKVSCKASGNTFSSNVISWVRQAPGQGLEWMGGVIPIVDIANYAQRFKGRVTITADESTSTTYMELSSLRSEDTAVYYCASTLGLVLDAMDYWGQGTLVTVSS VL: ETVLTQSPGTLSLSPGERATLSCRASQSLGSSYLAWYQQKPGQAPRLLIYGASSRAPGIPDRFSGSGSGTDFTLTISRLEPEDFAVYYCQQYADSPITFGQGTRLEIK"
–,–,–,1.7,1.6,1.5,–,–,–,"Y27V (antibody, V domains shown, GC1008 IgG4 variant) VH: QVQLVQSGAEVKKPGSSVKVSCKASGVTFSSNVISWVRQAPGQGLEWMGGVIPIVDIANYAQRFKGRVTITADESTSTTYMELSSLRSEDTAVYYCASTLGLVLDAMDYWGQGTLVTVSS VL: ETVLTQSPGTLSLSPGERATLSCRASQSLGSSYLAWYQQKPGQAPRLLIYGASSRAPGIPDRFSGSGSGTDFTLTISRLEPEDFAVYYCQQYADSPITFGQGTRLEIK"
–,–,–,1.4,1.4,1.5,–,–,–,"Y27T (antibody, V domains shown, GC1008 IgG4 variant) VH: QVQLVQSGAEVKKPGSSVKVSCKASGTTFSSNVISWVRQAPGQGLEWMGGVIPIVDIANYAQRFKGRVTITADESTSTTYMELSSLRSEDTAVYYCASTLGLVLDAMDYWGQGTLVTVSS VL: ETVLTQSPGTLSLSPGERATLSCRASQSLGSSYLAWYQQKPGQAPRLLIYGASSRAPGIPDRFSGSGSGTDFTLTISRLEPEDFAVYYCQQYADSPITFGQGTRLEIK"
–,–,–,1.7,1.4,1.4,–,–,–,"Y27P (antibody, V domains shown, GC1008 IgG4 variant) VH: QVQLVQSGAEVKKPGSSVKVSCKASGPTFSSNVISWVRQAPGQGLEWMGGVIPIVDIANYAQRFKGRVTITADESTSTTYMELSSLRSEDTAVYYCASTLGLVLDAMDYWGQGTLVTVSS VL: ETVLTQSPGTLSLSPGERATLSCRASQSLGSSYLAWYQQKPGQAPRLLIYGASSRAPGIPDRFSGSGSGTDFTLTISRLEPEDFAVYYCQQYADSPITFGQGTRLEIK"
–,–,–,1.4,1.3,1.4,–,–,–,"Y27W (antibody, V domains shown, GC1008 IgG4 variant) VH: QVQLVQSGAEVKKPGSSVKVSCKASGWTFSSNVISWVRQAPGQGLEWMGGVIPIVDIANYAQRFKGRVTITADESTSTTYMELSSLRSEDTAVYYCASTLGLVLDAMDYWGQGTLVTVSS VL: ETVLTQSPGTLSLSPGERATLSCRASQSLGSSYLAWYQQKPGQAPRLLIYGASSRAPGIPDRFSGSGSGTDFTLTISRLEPEDFAVYYCQQYADSPITFGQGTRLEIK"
2,1,0.7,2,1,0.7,2.1,1.3,0.8,"E74R (antibody, V domains shown, GC1008 IgG4 variant) VH: QVQLVQSGAEVKKPGSSVKVSCKASGYTFSSNVISWVRQAPGQGLEWMGGVIPIVDIANYAQRFKGRVTITADRSTSTTYMELSSLRSEDTAVYYCASTLGLVLDAMDYWGQGTLVTVSS VL: ETVLTQSPGTLSLSPGERATLSCRASQSLGSSYLAWYQQKPGQAPRLLIYGASSRAPGIPDRFSGSGSGTDFTLTISRLEPEDFAVYYCQQYADSPITFGQGTRLEIK"
–,–,–,1.5,1.4,1.4,–,–,–,"Y27Q (antibody, V domains shown, GC1008 IgG4 variant) VH: QVQLVQSGAEVKKPGSSVKVSCKASGQTFSSNVISWVRQAPGQGLEWMGGVIPIVDIANYAQRFKGRVTITADESTSTTYMELSSLRSEDTAVYYCASTLGLVLDAMDYWGQGTLVTVSS VL: ETVLTQSPGTLSLSPGERATLSCRASQSLGSSYLAWYQQKPGQAPRLLIYGASSRAPGIPDRFSGSGSGTDFTLTISRLEPEDFAVYYCQQYADSPITFGQGTRLEIK"
